Earlier results in paper PMC11544004.

Experiments:
CD86 (Homo sapiens) = CD86 (Homo sapiens) (UniProt P42081)
CD80 (Homo sapiens) = CD80 (Homo sapiens) (UniProt P33681)
[1] = biological target: PVR (CD155) (Homo sapiens) (UniProt P15151)

Sequence of UniProt P42081 (P42081 24-247): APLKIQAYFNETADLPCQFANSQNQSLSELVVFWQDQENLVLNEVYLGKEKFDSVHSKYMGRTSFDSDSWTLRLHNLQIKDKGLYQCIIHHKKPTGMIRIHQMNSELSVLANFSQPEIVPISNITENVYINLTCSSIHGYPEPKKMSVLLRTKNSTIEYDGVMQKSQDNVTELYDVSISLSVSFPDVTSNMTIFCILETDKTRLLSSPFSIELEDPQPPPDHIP
Sequence of UniProt P33681 (P33681 35-242): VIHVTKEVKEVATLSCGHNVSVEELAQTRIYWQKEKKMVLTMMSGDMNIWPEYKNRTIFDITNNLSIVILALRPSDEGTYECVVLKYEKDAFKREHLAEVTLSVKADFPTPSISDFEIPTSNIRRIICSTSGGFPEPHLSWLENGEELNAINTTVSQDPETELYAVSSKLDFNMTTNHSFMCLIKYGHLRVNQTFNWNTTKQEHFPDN

| Kd (CD86 (Homo sapiens)) [µM] | Kd (CD80 (Homo sapiens)) [µM] | Kd [1] [µM] | Substance |
| --- | --- | --- | --- |
| 20 | 4 | – | CD28 (from UniProt P10747) |
| – | – | 0.002 | TIGIT (from UniProt Q495A1) |
